The record followed here is article PMC4048032.

The assay addresses VopL C-terminal Domain (VCD), residues 247–484 (Vibrio parahaemolyticus) (UniProt Q87GE5). The assay is described as follows: crystal structure.

Turning to “VopL C-terminal Domain (VCD), residues 247–484 (from UniProt Q87GE5 247-484) (domain or fragment)”, the stoichiometry N worked out at 2.

Usually stoichiometry N stands for a count of units in the complex or per binding partner.
